From patent publication US20190209659, “STABLE LIQUID FIBRINOGEN” (LABORATOIRE FRANCAIS DU FRACTIONNEMENT ET DES …, published 2019)

Assays:
fibrinogen (plasma) [1] = target: T1, fibrinogen (plasma) (Homo sapiens, UniProt P02671-2;P02675;P02679-2 P02671-2:20-644,P02675:31-491,P02679-2:27-437); assay: competition; significant inhibition of fibrinogen binding to immobilised SEQ 66 (SPR); conditions: tags: human plasma purified, 95% or 99.9% purity; semi-purified and plasma used in chromatography; chain copies: 2
T1 sequence (P02671 other isoform, or with tags, fused parts or gaps, chain 1 of 3): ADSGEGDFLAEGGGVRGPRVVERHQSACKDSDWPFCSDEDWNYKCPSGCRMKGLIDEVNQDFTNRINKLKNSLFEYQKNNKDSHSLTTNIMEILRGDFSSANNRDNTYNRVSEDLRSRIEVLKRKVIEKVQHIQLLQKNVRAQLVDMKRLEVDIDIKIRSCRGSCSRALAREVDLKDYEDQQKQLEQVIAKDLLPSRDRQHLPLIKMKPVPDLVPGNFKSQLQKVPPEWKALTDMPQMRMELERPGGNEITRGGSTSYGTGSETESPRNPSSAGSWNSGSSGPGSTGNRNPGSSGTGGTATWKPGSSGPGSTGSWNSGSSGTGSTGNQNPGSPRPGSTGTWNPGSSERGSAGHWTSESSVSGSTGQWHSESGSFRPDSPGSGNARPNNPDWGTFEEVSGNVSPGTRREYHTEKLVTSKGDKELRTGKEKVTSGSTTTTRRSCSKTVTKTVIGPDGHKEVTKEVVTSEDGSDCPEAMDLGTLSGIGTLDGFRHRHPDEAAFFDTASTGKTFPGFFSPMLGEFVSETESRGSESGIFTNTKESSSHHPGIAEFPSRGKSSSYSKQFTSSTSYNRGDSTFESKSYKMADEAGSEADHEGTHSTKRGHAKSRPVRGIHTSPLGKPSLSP
T1 sequence (P02675 31-491, chain 2 of 3): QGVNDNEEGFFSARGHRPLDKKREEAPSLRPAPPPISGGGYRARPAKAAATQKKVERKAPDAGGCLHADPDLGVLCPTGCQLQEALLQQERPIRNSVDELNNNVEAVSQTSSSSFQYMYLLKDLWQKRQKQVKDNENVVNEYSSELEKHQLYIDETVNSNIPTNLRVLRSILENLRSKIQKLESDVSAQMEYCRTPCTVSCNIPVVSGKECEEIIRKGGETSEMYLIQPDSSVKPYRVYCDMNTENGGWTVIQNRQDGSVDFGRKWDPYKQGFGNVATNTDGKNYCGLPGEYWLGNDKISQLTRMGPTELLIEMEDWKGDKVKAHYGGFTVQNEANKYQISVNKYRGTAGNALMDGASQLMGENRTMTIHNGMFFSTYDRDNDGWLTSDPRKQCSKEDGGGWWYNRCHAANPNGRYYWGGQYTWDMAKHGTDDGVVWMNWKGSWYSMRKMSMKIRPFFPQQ
T1 sequence (P02679 other isoform, or with tags, fused parts or gaps, chain 3 of 3): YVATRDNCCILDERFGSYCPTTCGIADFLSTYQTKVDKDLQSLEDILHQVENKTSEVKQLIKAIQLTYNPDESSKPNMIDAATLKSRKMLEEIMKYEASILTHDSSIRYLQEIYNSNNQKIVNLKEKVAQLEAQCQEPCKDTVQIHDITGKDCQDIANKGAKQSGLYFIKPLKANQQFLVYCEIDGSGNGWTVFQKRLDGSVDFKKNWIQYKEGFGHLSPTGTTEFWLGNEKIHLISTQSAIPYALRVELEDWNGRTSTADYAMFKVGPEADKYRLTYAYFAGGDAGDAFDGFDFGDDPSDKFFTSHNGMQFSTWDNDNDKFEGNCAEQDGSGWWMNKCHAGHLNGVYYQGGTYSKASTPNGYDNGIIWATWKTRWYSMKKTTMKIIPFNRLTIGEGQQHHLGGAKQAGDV
Method: (§1) In order to compare the affinity of the designed variants with that of the parental aptamer, a concurrent test was conducted. Firstly, a 1 μM solution of the aptamer of SEQ ID NO 66 was prepared using binding buffer. The aptamer solution was heated to 90° C. for 5 min, incubated in ice for 5 min and balanced at the ambient temperature for 10 min. The preparation was injected into a sensor chip coated with streptavidin SA from Biacore T200 instrument (GE Healthcare) at a rate of 10 μl/min for 7 min. Then, mixtures containing a variant (2 μM) and the human plasma fibrinogen (0.4 μM) were injected on the aptamer immobility at a rate of 30 μl/min for 1 minute. The response obtained for the various fragment/fibrinogen mixtures was compared.

fibrinogen (plasma) [2] = target: T1, fibrinogen (plasma); assay: SPR; stated strong affinity, pH-dependent; conditions: tags: human plasma purified, 95% or 99.9% purity; semi-purified and plasma used in chromatography; chain copies: 2
[3] = target: T2, fibrinogen (transgenic, human) (Homo sapiens, UniProt P02671-2;P02675;P02679-2 P02671-2:20-644,P02675:31-491,P02679-2:27-437); assay: SPR; stated strong affinity, pH-dependent; conditions: tags: purified from transgenic cow milk, 97% purity; chain copies: 2
T2 sequence (P02671 other isoform, or with tags, fused parts or gaps, chain 1 of 3): as the sequence (P02671 other isoform, or with tags, fused parts or gaps, chain 1 of 3) above
T2 sequence (P02675 31-491, chain 2 of 3): as the sequence (P02675 31-491, chain 2 of 3) above
T2 sequence (P02679 other isoform, or with tags, fused parts or gaps, chain 3 of 3): as the sequence (P02679 other isoform, or with tags, fused parts or gaps, chain 3 of 3) above

fibrinogen (plasma) [4] = target: T1, fibrinogen (plasma); assay: competition; 2 uM variant with 0.4 uM fibrinogen over immobilised SEQ 66 (SPR); among highest affinity; conditions: tags: human plasma purified, 95% or 99.9% purity; semi-purified and plasma used in chromatography; chain copies: 2
Method: as §1

[5] = target: T2, fibrinogen (transgenic, human); assay: SPR; dose-dependent 125-1000 nM, pH 6.3; resists 0.5 M NaCl, eluted at pH 7.4; conditions: tags: purified from transgenic cow milk, 97% purity; chain copies: 2
Method: (§2) Each solution of transgenic fibrinogen was injected at pH 6.3 in such a way that a complex was formed in a dose-dependent manner as shown by the increase in the signals depending on the concentration of fibrinogen. […] The fibrinogen was then released from the complex by an elution buffer at pH 7.40. The solid support was then regenerated by injection of a solution of NaOH 50 mM. X-axis: time in s. Y-axis: SPR response in arbitrary unit.
(§3) The chosen aptamer was synthesised with biotin and a spacer of triethylene glycol at the end 5′ of the oligonucleotide. A solution 1 μM of the aptamer was prepared using the SELEX selection buffer. The aptamer solution was heated to 90° C. for 5 min, incubated in ice for 5 min and balanced at the ambient temperature for 10 min. The preparation was injected into a sensor chip coated with streptavidin SA from Biocore T200 instrument (GE Healthcare) at a debit of […] for 7 min. Then, various concentrations of the target were injected onto the immobilised aptamer at a rate of 30 μl/min for 1 minute. After a dissociation for 1-2 min, a step of washing was carried out via injection of a suitable wash buffer at a rate of 30 μl/min for 1 min. For the elution, a suitable elution buffer was injected at a rate of 30 μl/min for 1-2 min. […] During the experiment, the response signal was recorded in a sensorgram.

fibrinogen (plasma) [6] = target: T1, fibrinogen (plasma); assay: SPR; dose-dependent 125-1000 nM, pH 6.3, MOPS, NaCl 150 mM, MgCl2 5 mM; resists 0.5 M NaCl, eluted at pH 7.4; conditions: tags: human plasma purified, 95% or 99.9% purity; semi-purified and plasma used in chromatography; chain copies: 2
Method: as §2, with “human plasma” for “transgenic”
as §3

fibrinogen (plasma) [7] = target: T1, fibrinogen (plasma); assay: SPR; 250 nM fibrinogen, pH 6.3; resists 0.5 M NaCl; conditions: tags: human plasma purified, 95% or 99.9% purity; semi-purified and plasma used in chromatography; chain copies: 2
[8] = target: T2, fibrinogen (transgenic, human); assay: SPR; stated strong affinity for plasma and transgenic fibrinogen, pH 6.3; conditions: tags: purified from transgenic cow milk, 97% purity; chain copies: 2
[9] = target: T2, fibrinogen (transgenic, human); assay: SPR; dose-dependent 125-1000 nM, pH 6.3; resists 1 M NaCl, eluted at pH 7.4 with 2 M MgCl2; conditions: tags: purified from transgenic cow milk, 97% purity; chain copies: 2
Method: as §2, with “7.40 and containing MgCl₂ 2 M.” for “7.40.”
as §3

fibrinogen (plasma) [10] = target: T1, fibrinogen (plasma); assay: as above; conditions: tags: human plasma purified, 95% or 99.9% purity; semi-purified and plasma used in chromatography; chain copies: 2
Method: as §2, with “human plasma” for “transgenic”, “7.40 and containing MgCl₂ 2 M.” for “7.40.”
as §3

B1: SEQ ID NO 90 variant (ssDNA)
DNA: GTCAATGCCAGGTCTCGGACCTGGAATCCGCCACCCGCATAGAACCAGGGTTGAC
Fibrinogen (plasma) [1]
  binding result: binds

B2: SEQ ID NO 92 variant (ssDNA)
DNA: GTCAATGCCAGGTCTCGGACCTGGAATCCGCCACCCGCTTAGAACCAGGGTTGAC
Fibrinogen (plasma) [1]
  binding result: binds

B3: SEQ ID NO 1 aptamer (ssDNA)
DNA: GGGTCAATGCCAGGTCTCGGACCTGGAATCCGCCACCCGCATTAGAACCAGGGTTGACATCGGCTCGCAAGCAGTC
modifications: 5' biotin-triethylene glycol
Fibrinogen (plasma) [2]
  binding result: binds
[3]
  binding result: binds

B4: SEQ ID NO 58 aptamer (ssDNA)
DNA: GGGTCAATGCCAGGTCTCAACTTTCGCGTGTGGTTGGTAGGGCTAGGTGTATACGCATATCGGCTCGCAAGCAGTC
modifications: 5' biotin-triethylene glycol
Fibrinogen (plasma) [2]
  binding result: binds
[3]
  binding result: binds

B5: SEQ ID NO 83 variant (ssDNA)
DNA: GTCAATGCCAGGTCTCCTGGAATCCGCCACCCGCATTAGAACCAGGGTTGAC
Fibrinogen (plasma) [4]
  binding result: binds

B6: SEQ ID NO 84 variant (ssDNA)
DNA: GTCAATGCCAGGTCACCTGGAATCCGCCACCCGCATTAGAACCAGGGTTGAC
Fibrinogen (plasma) [4]
  binding result: binds

B7: SEQ ID NO 93 variant (ssDNA)
DNA: GTCAATGCCAGCGGACCTGGAATCCGCCACCCGCATTAGAACCAGGGTTGAC
Fibrinogen (plasma) [1]
  binding result: binds

B8: SEQ ID NO 86 variant (ssDNA)
DNA: GTCAATGCCAGGTCGCCTGGAATCCGCCACCCGCATTAGAACCAGGGTTGAC
Fibrinogen (plasma) [4]
  binding result: binds

B9: SEQ ID NO 66 (A5-1.9 base sequence) (ssDNA)
DNA: GGGTCAATGCCAGGTCTCGGACCTGGAATCCGCCACCCGCATTAGAACCAGGGTTGAC
modifications: 5' biotin-triethylene glycol (SPR); 5' amino-C6 spacer and 3' inverted dT (affinity support)
[5]
  binding result: binds
Fibrinogen (plasma) [6]
  binding result: binds

B10: SEQ ID NO 65 aptamer (ssDNA)
DNA: GGGTCAATGCCAGGTCTCGAGCCGGTGTTGTGTTATGTTGGTAGGGAAGGTGTATAATATCGGCTCGCAAGCAGTC
modifications: 5' biotin-triethylene glycol
Fibrinogen (plasma) [7]
  binding result: binds
[8]
  binding result: binds

B11: SEQ ID NO 67 (A5-2.9 base sequence) (ssDNA)
DNA: CGCGTGTGGTTGGTAGGGCTAGGTGTATACGCAT
modifications: 5' biotin-triethylene glycol (SPR); 5' amino-C6 spacer and 3' inverted dT (affinity support)
[9]
  binding result: binds
Fibrinogen (plasma) [10]
  binding result: binds

B12: SEQ ID NO 60 aptamer (ssDNA)
DNA: GGGTCAATGCCAGGTCTCTGCGTACTTATCTCGATGTGGTTGGTAGGGATAGGTGTATATCGGCTCGCAAGCAGTC
modifications: 5' biotin-triethylene glycol
Fibrinogen (plasma) [7]
  binding result: binds
[8]
  binding result: binds

B13: SEQ ID NO 81 variant (ssDNA)
DNA: GTCAATGCCAGGTCTCCCTGGAATCCGCCACCCGCATTAGAACCAGGGTTGAC
Fibrinogen (plasma) [4]
  binding result: binds

B14: SEQ ID NO 91 variant (ssDNA)
DNA: GTCAATGCCAGTCGGACCTGGAATCCGCCACCCGCATTAGAACCAGGGTTGAC
Fibrinogen (plasma) [1]
  binding result: binds

B15: SEQ ID NO 85 variant (ssDNA)
DNA: GTCAATGCCAGGTCGACCTGGAATCCGCCACCCGCATTAGAACCAGGGTTGAC
Fibrinogen (plasma) [4]
  binding result: binds

B16: SEQ ID NO 89 variant (ssDNA)
DNA: GTCAATGCCAGGTCTCGGACCTGGAATCCGCCACCCGCATTAGAACCAGGGTTGA
Fibrinogen (plasma) [1]
  binding result: binds

B17: SEQ ID NO 87 variant (ssDNA)
DNA: GTCAATGCCAGGTCTCACCTGGAATCCGCCACCCGCATTAGAACCAGGGTTGAC
Fibrinogen (plasma) [4]
  binding result: binds

B18: SEQ ID NO 88 variant (ssDNA)
DNA: GTCAATGCCAGGTCGGACCTGGAATCCGCCACCCGCATTAGAACCAGGGTTGAC
Fibrinogen (plasma) [1]
  binding result: binds

B19: SEQ ID NO 80 variant (deletion 1/2) (ssDNA)
DNA: GTCAATGCCAGGTCTCGGACCTGGAATCCGCCACCCGCATTAGAACCAGGGTTGAC
Fibrinogen (plasma) [4]
  binding result: binds

## GTCAATGCCAGTCGCTGGAATCCGCCACCCGCATTAGAACCAGGGTTGAC (ssDNA) [SEQ ID NO 82 variant]
Fibrinogen (plasma) [4]
  binding result: binds
